Consider two molecules from patent publication US20030113787A1 (Takeda / Millennium, published 2003).

Positions count from the first letter of the chain named. In names and notes the source's numbering stands.

Assay [1] concerns the target T1, FLAG-CARD10/ΔCARD (human, UniProt Q9BWT7 131-1032).
T1 construct: also called CARD-10 truncation mutant lacking its CARD domain
T1 sequence: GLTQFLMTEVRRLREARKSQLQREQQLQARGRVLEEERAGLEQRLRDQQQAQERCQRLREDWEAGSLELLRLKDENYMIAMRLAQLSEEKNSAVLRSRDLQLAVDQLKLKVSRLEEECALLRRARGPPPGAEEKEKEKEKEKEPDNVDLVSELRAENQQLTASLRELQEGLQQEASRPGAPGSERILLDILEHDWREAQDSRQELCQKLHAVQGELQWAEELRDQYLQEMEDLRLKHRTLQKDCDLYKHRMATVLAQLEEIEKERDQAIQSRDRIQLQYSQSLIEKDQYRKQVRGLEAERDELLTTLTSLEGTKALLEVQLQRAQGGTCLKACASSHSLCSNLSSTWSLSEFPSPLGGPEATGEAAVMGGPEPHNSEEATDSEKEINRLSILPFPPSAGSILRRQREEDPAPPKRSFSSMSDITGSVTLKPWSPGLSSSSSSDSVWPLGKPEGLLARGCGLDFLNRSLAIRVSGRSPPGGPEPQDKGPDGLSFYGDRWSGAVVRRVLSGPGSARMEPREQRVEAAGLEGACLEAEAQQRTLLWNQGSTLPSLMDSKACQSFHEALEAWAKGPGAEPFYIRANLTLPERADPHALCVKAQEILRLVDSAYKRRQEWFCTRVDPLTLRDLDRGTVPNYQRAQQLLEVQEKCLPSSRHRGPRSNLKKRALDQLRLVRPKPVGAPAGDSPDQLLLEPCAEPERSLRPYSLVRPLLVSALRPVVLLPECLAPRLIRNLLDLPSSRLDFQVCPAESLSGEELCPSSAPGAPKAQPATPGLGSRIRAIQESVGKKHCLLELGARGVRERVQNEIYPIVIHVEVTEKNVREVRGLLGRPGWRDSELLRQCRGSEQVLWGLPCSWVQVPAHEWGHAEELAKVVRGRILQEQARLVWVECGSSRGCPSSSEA
Kind of assay: co-immunoprecipitation from transfected 293T cells.

Another assay deals with T2, FLAG-tagged CARD-10 (human, UniProt Q9BWT7 1-1032).
T2 construct: Expressed in 293T cells; also called FLAG-CARD-10
T2 sequence: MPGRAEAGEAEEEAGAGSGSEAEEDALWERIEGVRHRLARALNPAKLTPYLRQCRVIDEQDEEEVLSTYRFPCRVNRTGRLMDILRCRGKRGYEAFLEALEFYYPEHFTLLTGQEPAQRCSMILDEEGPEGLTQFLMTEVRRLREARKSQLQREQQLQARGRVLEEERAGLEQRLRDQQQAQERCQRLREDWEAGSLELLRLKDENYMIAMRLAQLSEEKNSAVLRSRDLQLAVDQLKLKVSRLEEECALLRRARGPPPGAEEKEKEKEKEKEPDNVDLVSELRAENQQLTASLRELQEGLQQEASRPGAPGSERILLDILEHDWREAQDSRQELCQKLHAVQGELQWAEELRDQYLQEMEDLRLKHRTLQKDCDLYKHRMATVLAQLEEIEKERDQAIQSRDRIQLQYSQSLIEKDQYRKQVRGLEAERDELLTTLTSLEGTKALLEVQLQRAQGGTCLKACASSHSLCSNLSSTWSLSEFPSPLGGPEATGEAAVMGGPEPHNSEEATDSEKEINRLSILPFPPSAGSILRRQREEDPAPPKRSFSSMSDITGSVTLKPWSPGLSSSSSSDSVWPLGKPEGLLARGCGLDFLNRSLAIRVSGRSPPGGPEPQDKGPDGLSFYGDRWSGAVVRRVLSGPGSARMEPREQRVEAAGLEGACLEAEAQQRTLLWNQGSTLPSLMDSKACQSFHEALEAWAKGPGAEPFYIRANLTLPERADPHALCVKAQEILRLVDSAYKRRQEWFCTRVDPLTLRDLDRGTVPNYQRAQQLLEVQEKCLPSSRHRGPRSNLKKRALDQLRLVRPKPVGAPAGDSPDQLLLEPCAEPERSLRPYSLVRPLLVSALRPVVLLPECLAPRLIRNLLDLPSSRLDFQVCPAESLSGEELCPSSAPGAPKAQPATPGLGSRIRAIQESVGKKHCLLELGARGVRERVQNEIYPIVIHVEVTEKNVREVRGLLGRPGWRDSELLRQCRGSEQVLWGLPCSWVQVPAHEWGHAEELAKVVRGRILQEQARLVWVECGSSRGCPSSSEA
The assay can be described thus: co-immunoprecipitation from transfected 293T cells.

Assay [2] has as its target T1, FLAG-CARD10/ΔCARD. Kind of assay: co-immunoprecipitation with anti-Bcl-10 antibodies, anti-FLAG blot.

B1: variant Bcl-10 with a point mutation (L41R) (other, UniProt O95999 1-233, looked up)
chain: MEPTAPSLTEEDLTEVKKDALENLRVYLCEKIIAERHFDHRRAKKILSREDTEEISCRTSSRKRAGKLLDYLQENPKGLDTLVESIRREKTQNFLIQKITDEVLKLRNIKLEHLKGLKCSSCEPFPDGATNNLSRSNSDESNFSEKLRASTVMYHPEGESSTTPFFSTNSSLNLPVLEVGRTENTIFSSTTLPRPGDPGAPPLPPDLQLEEEGTCANSSEMFLPLRSRTVSRQ
notes: also called Bcl-10 L41R mutant
Regarding B1, the binding result with FLAG-CARD10/ΔCARD [1] and with FLAG-tagged CARD-10 was “no binding” in each case.

B2: endogenous Bcl-10 (other, human, UniProt O95999 1-233, looked up)
chain: B1 chain with R41L
notes: Endogenous protein in cell extracts
Take B2: the binding result with FLAG-CARD10/ΔCARD [2] is on record as “no binding”.
